Test results from FireProtDB (doi:10.1093/protein/9.5.425).

B1: Tryptophan synthase alpha chain, P0A877 (parent)
chain: MERYESLFAQLKERKEGAFVPFVTLGDPGIEQSLKIIDTLIEAGADALELGIPFSDPLADGPTIQNATLRAFAAGVTPAQCFEMLALIRQKHPTIPIGLLMYANLVFNKGIDEFYAQCEKVGVDSVLVADVPVEESAPFRQAALRHNVAPIFICPPNADDDLLRQIASYGRGYTYLLSRAGVTGAENRAALPLNHLVAKLKEYNAAPPLQGFGISAPDQVKAAIDAGAAGAISGSAIVKIIEQHINEPEKMLAALKVFVQPMKAATRS

Variants of: B1
Conditions: Escherichia coli (strain K12), pH 9, Thermal, DSC, Sodium tetraborate 1 mM, reversible: yes, structure 1WQ5, whole UniProt chain shown

| Variant | Tm [°C] | change of melting temperature, mutant - wild type (higher = more stable) [°C] | heat capacity change of unfolding [kcal/mol/K] | unfolding enthalpy (calorimetric) [kcal/mol] | ddG of mutation (higher = less stable) (50 °C) [kcal/mol] | heat capacity change of unfolding (50 °C) [kcal/mol/K] | unfolding free energy (50 °C) [kcal/mol] |
| --- | --- | --- | --- | --- | --- | --- | --- |
| C81V | 49.1 | -4.4 | 4.31 | 57.4 | – | – | – |
| C81A | 51.8 | -1.7 | 4.11 | 83.5 | 0.69 | 4.11 | 0.48 |
| C81G | 48.7 | -4.8 | 6.82 | 104 | – | – | – |
| C81S | 49.1 | -4.4 | 5.02 | 92.8 | – | – | – |
| C118S | 45 | -8.5 | 2.3 | 75.6 | – | – | – |
| C118V | 49.3 | -4.2 | 2.42 | 73 | – | – | – |
| C118A | 49.2 | -4.3 | 3.3 | 82.3 | – | – | – |
| C154V | 50.2 | -3.3 | 4.21 | 71.5 | 1.12 | 4.21 | 0.05 |
| C154A | 50.6 | -2.9 | 4.11 | 73 | 1.03 | 4.11 | 0.14 |
| C154S | 45.3 | -8.2 | 3.52 | 46.4 | – | – | – |
